# Laboratory results as given in patent publication US20090061444A1 (WISCONSIN ALUMNI RESEARCH FOUNDATION, published 2009).
# Target: the molecule itself
# Assay: size exclusion chromatography (Superose 6), non-denaturing; self-association
# Procedure: Size Exclusion Chromatography. Size exclusion chromatography (SEC) was performed by FPLC using a 24 ml Superose 6 (S6) column (GE Healthcare, Pittsburgh, Pa.). The chromoproteins (100 μl of a 5 mg/ml sample) were first purified through the phenyl HP step, dissolved in 30 mM Tris-HCl (pH 8.0) and 200 mM NaCl, and either loaded onto the column as Pr or immediately following saturating irradiation of the sample with red light (630 nm). Absorption spectra were recorded before and after SEC to verify that the chromoproteins remained enriched in the desired states (Pr or Pfr).
# SEC has shown that most, if not all, Phys are dimeric with their binding interface(s) involving one or more regions, including the GAF domain in DrBphP, the PAS-GAF-PHY domain in Syn-Cph1, and the C-terminal HK and HK-related regions in microbial and higher plants Phys. […] Whereas the GAF domain alone as Pr behaved as a monomer of 22 kDa, consistent with its calculated molecular mass of 23.3 kDa, the GAF-PHY fragment behaved as a dimer species at 105-kDa, nearly twice the size of its calculated mass of 48.4 kDa (FIG. 23). […] The predicted molecular masses of monomeric SyB-Cph1 (GAF) and SyB-Cph1 (GAF-PHY) polypeptides are 23.3 kDa and 48.4 kDa, respectively, while the apparent molecular masses measured by SEC are 22 and 106 kDa, respectively.
protein,measurement,value
"SyB-Cph1 (GAF) chromoprotein assembled with PCB (other, phycocyanobilin (PCB) covalently bound at Cys-138, It ran as a monomer on SEC, both as Pr and after saturating red light; also called CYB GAF; BG) MDTETWAAAARPSRDALINRITHQIRQSLELDQILRATVEEVRAFLGTDRVKVYRFDPEGHGTVVAEARGGERLPSLLGLTFPAGDIPEEARRLFRLAQVRVIVDVEAQSRSISQPESWGLSARVPLGEPLQRPVDPCHVHYLKSMGVASSLVVPLMHHQELWGLLVSHHAEPRPYSQEELQVVQLLADQVSIAIAQAELHHHHHH",binding result,no binding (tested: 100 µl of a 5 mg/ml sample loaded)
